{"source": "patent US20250295687A1", "about": "“TREM COMPOSITIONS AND METHODS OF USE FOR TREATING PROLIFERATIVE DISORDERS” (Flagship Pioneering Innovations VI, LLC, priority 2022, published 2025)", "molecules": {"B1": {"name": "Arg-TGA: arginine non-cognate TREM: sequence of ARG-UCU-TREM body but with anticodon UCA instead of UCU (nucleic acid)", "chain": "GGCUCCGUGGCGCAAUGGAUAGCGCAUUGGACUUCAAAUUCAAAGGUUCCGGGUUCGAGUCCCGGCGGAGUCGCCA", "modifications": "listed as RNA, chemistry not fully specified"}}, "key": {"[1]": {"tested_on": "nonsense mutation in TP53 (R196X; Arg→TGA) in Calu-6 lung carcinoma cells", "test": "Western blot of full-length p53 after PTC readthrough in Calu-6 cells (Example 6)", "format": "cell-based", "details": "for PTC suppression / production of full-length p53 protein: 48 hours, Western blotting (FIGS. 1-3)", "method": "Calu-6 is a lung cancer cell line known to harbor a nonsense mutation in TP53 (R196X; Arg→TGA) that results in a premature termination codon (PTC). To test PTC readthrough of the TREM, cells were treated with Arg-TGA, Ser-TGA, or Ser-TAG TREMs or with known translational read-through inducing drugs (RIDs).\n(§1) To monitor the ability of the TREMs to readthrough the PTC mutation, the expression of TP53 was assessed by Western blotting 48 hours post-TREM delivery into the cells. Cells were washed once with phosphate buffered saline (PBS) and lysed with 100 uL of RIPA buffer (50 mM Tris, pH 8.0, 150 mM NaCl, 1% Nonidet-P40 (NP-40), 0.5% Deoxycholate, 0.1% sodium dodecyl sulfate (SDS)) supplemented with protease inhibitor, for 30 min at 4° C. The protein extracts were then centrifuged at 21,000 g for 15 min and the supernatant was transferred into clean tubes. Protein concentration was determined using a BCA Protein Assay Kit according to the manufacturer's instructions. 20 μg of total protein were loaded into an SDS-PAGE gel and transferred onto nitrocellulose membranes after electrophoresis. The membranes were probed with anti-p53, anti-p21, and anti-β-tubulin antibodies."}, "[2]": {"tested_on": "NanoLuc with a TGA PTC", "test": "In vivo PTC readthrough of NanoLuc TGA reporter by hydrodynamic gene delivery (FIG. 5B)", "parameters": "species or system mouse", "method": "Hydrodynamic gene delivery (HGD) is a simple, fast, safe, and effective method for delivering transgenes in rodent models. A set of plasmids expressing both an eGFP-Luc-TGA reporter and a TREM were designed. To evaluate tolerability and determine optimal plasmid concentration for maximum TREM delivery to the liver, the eGFP-WT Luc plasmid was administered to adult CD-1 mice via tail vein hydrodynamic injection at three doses: 10 μg, 30 μg, and 50 μg. […] Next, 50 μg of DNA in saline […] was administered to mice via tail vein hydrodynamic injection to assess target engagement and PTC readthrough using either 1) eGFP-Nluc TGA reporter plasmid (PL-854), or 2) eGFP-Nluc WT reporter (PL1202), or 3) all-in-one plasmid eGFP-Nluc-TGA reporter with S-TAG (PL-1216), or 4) all-in-one plasmid eGFP-Nluc-TGA reporter with R-TGA (PL-1215)."}, "[3]": {"tested_on": "p21 (downstream transcriptional target of p53) in Calu-6 cells", "test": "Western blot of p21 protein levels in Calu-6 cells (p53 functional rescue)", "format": "cell-based", "method": "Calu-6 is a lung cancer cell line known to harbor a nonsense mutation in TP53 (R196X; Arg→TGA) that results in a premature termination codon (PTC). To test PTC readthrough of the TREM, cells were treated with Arg-TGA, Ser-TGA, or Ser-TAG TREMs or with known translational read-through inducing drugs (RIDs). Briefly, 6×10^5 cells were seeded into a 6-well plate and transfected with […] of TREM in 15 uL of RNAiMAX+800 uL OptiMEM; 0.5 or 5 mg/mL G418, an aminoglycoside antibiotic; or Ataluren, a TRID that is approved for the treatment of DMD in Europe at the reported maximally effective dose of 10 uM.\nas §1\nTo determine whether the rescued p53 protein was functional, cellular p21 protein levels were measured (FIG. 4). p21 is a downstream transcriptional target and well-established biomarker of p53 activity."}}}
{"molecule": "O=C(O)c1cccc(-c2noc(-c3ccccc3F)n2)c1", "note": "[Ataluren, reference compound]", "values": [{"measurement": "percentage of full-length p53 out of the total p53 protein", "setting": "[1]; Calu-6 cells treated with 10 μM", "result": "about 0%"}, {"measurement": "PTC suppression / production of full-length p53 protein", "setting": "[1]; Calu-6 cells", "result": "ineffective"}]}
{"molecule": "CN[C@@H]1[C@@H](O)[C@@H](O[C@@H]2[C@@H](O)[C@H](O[C@H]3O[C@H]([C@@H](C)O)[C@@H](O)[C@H](O)[C@H]3N)[C@@H](N)C[C@H]2N)OC[C@]1(C)O", "note": "[G418, reference compound]", "values": [{"measurement": "rescue of TP53 mRNA levels / expression of truncated p53 protein", "setting": "[1]; Calu-6 cells", "result": "more effective in rescuing mRNA levels"}, {"measurement": "percentage of full-length p53 out of the total p53 protein", "setting": "[1]; Calu-6 cells treated with 0.5 mg/mL", "result": "about 30%"}, {"measurement": "percentage of full-length p53 out of the total p53 protein", "setting": "[1]; Calu-6 cells treated with 5 mg/mL", "result": "about 30%"}, {"measurement": "PTC suppression / production of full-length p53 protein", "setting": "[1]; Calu-6 cells", "result": "marginally increased"}]}
{"molecule": "B1", "values": [{"measurement": "increase in luciferase signal compared to controls", "setting": "[2]; mice, 50 μg of DNA in saline, tail vein hydrodynamic injection, all-in-one plasmid eGFP-Nluc-TGA reporter (FIG. 5B)", "result": "~1000", "unit": "fold"}, {"measurement": "total flux signal in the liver", "setting": "[2]; mouse, hydrodynamic delivery of plasmid (FIG. 5B)", "result": "about 2×10^9 p/s"}, {"measurement": "percentage of full-length p53 of the total p53 protein", "setting": "[1]; Calu-6 cells treated with 100 nM", "result": "about 95%"}, {"measurement": "full-length p53 levels increase relative to cells treated with SEQ ID NO:623", "setting": "[1]; Calu-6 cells, 100 nM TREM, vs 100 nM SEQ ID NO:623", "result": "about 55 fold"}, {"measurement": "full-length p53 levels increase relative to cells treated with SEQ ID NO:625", "setting": "[1]; Calu-6 cells, 100 nM TREM, vs 100 nM SEQ ID NO:625", "result": "about 11 fold"}, {"measurement": "full-length p53 levels increase relative to cells treated with Ataluren", "setting": "[1]; Calu-6 cells, 100 nM TREM, vs 10 μM Ataluren", "result": "about 55 fold"}, {"measurement": "full-length p53 levels increase relative to cells treated with 0.5 mg/mL G418", "setting": "[1]; Calu-6 cells, 100 nM TREM, vs 0.5 mg/mL G418", "result": "about 55 fold"}, {"measurement": "full-length p53 levels increase relative to cells treated with 5 mg/mL G418", "setting": "[1]; Calu-6 cells, 100 nM TREM, vs 5 mg/mL G418", "result": "about 14 fold"}, {"measurement": "full-length p53 levels increase relative to mock-transfected cells", "setting": "[1]; Calu-6 cells, 100 nM TREM, vs mock-transfected cells", "result": "about 55 fold"}, {"measurement": "full-length p53 levels increase relative to untreated cells", "setting": "[1]; Calu-6 cells, 100 nM TREM, vs untreated cells", "result": "about 55 fold"}, {"measurement": "total p53 that was full length (FIG. 3)", "setting": "[1]; Calu-6 cells, 48 hours post-TREM delivery, Western blotting", "result": "about 90%"}, {"measurement": "PTC suppression / production of full-length p53 protein", "setting": "[1]; Calu-6 cells", "result": "robustly induce PTC suppression"}, {"measurement": "p21 levels increase relative to cells treated with SEQ ID NO:623", "setting": "[3]; 100 nM TREM, vs 100 nM SEQ ID NO:623", "result": "about 60 fold"}, {"measurement": "p21 levels increase relative to cells treated with SEQ ID NO:625", "setting": "[3]; 100 nM TREM, vs 100 nM SEQ ID NO:625", "result": "about 30 fold"}, {"measurement": "p21 levels increase relative to cells treated with Ataluren", "setting": "[3]; 100 nM TREM, vs 10 μM Ataluren", "result": "about 60 fold"}, {"measurement": "p21 levels increase relative to cells treated with 0.5 mg/mL G418", "setting": "[3]; 100 nM TREM, vs 0.5 mg/mL G418", "result": "about 60 fold"}, {"measurement": "p21 levels increase relative to cells treated with 5 mg/mL G418", "setting": "[3]; 100 nM TREM, vs 5 mg/mL G418", "result": "about 60 fold"}, {"measurement": "p21 levels increase relative to mock-transfected cells", "setting": "[3]; 100 nM TREM, vs mock-transfected cells", "result": "about 60 fold"}, {"measurement": "p21 levels increase relative to untreated cells", "setting": "[3]; 100 nM TREM, vs untreated cells", "result": "about 60 fold"}, {"measurement": "rescue of cellular p21 protein levels (FIG. 4)", "setting": "[3]; Western blotting", "result": "able to rescue p21 protein levels"}]}
